This note sets out measurements from article PMC10998826 (EJNMMI Research, 2024).

Like-named read-outs stand apart in the source and are kept apart here.

Type in all cases: in vivo, humans
Data set [1] in a line: Acute toxicity, adverse events graded by CTCAE version 4.03. Particulars: all patients, with and without Entresto premedication. The method, then: (§1) Patients were allowed a light breakfast at the day of each infusion. […] Entresto® was given at an oral dose of 100 mg, containing 48.6 mg sacubitril and 51.4 mg valsartan 2 h before the start of one of the two infusions. Vital signs were recorded, and a 12-lead electrocardiogram was obtained before and after each injection. Adverse events were recorded and graded according to Common Terminology Criteria for Adverse Events (CTCAE) version 4.03.

Data set [2] is described as follows: SPECT/CT based dosimetry of tumors. Particulars: human, iv, total radioactivity. The method, then:
as §1
(§2) Planar whole-body scintigraphy and quantitative SPECT/CT acquisitions of neck/thorax/abdomen/pelvis were acquired with a hybrid SPECT/CT system (Siemens Intevo, Siemens Erlangen, Germany) at 1, 4, 24 and 72 h post injection (p.i.).
(§3) Calibration of the SPECT/CT camera was performed with a National Institute of Standards and Technology traceable selenium-75 point source (uncertainty in activity 3%) every four weeks. Acquisitions (medium-energy low-penetration collimator) were performed in step and shoot mode using 20 s/view, 64 views/head using a non-circular orbit with a 180° detector configuration in a 128 × 128 matrix. The photo-peak window was set to 208 keV ± 10% (187.2–228.8 keV). Except for the first patient, the quantitative tomographic images (isotropic voxel size 5.08 mm^3) were reconstructed with xSPECT Quant™ (Siemens Healthcare, Siemens Erlangen, Germany) which uses the ordered subset conjugate gradient method (OSCGM) to calculate the quantitative activity distribution. The number of iterations (12, 24 or 60) with one subset and 3D-Gaussian post-filter with full width at half maximum (FWHM) of 16.0 mm and 20.8 mm were selected automatically by the reconstruction algorithm, based on the count statistic. Triple energy window scatter correction, CT-based attenuation correction, and resolution recovery were enabled for all image reconstructions. As the xSPECT Quant™ algorithm was not available at the site initially, images of the first patient were quantitatively reconstructed (isotropic voxel size of 3.9 mm^3) using the OSCGM algorithm with 24 iterations, one subset and a 3D-Gaussian post filter of 10.0 mm FWHM. For these reconstructions, both photo-peak energy windows at 113 keV ± 10% and 208 keV ± 10% were used. All other settings remained as stated above.
(§4) At first a VOI with volume V0 and activity A0 enclosing the tumor and its surrounding background was drawn. Subsequently, the threshold was increased until a new VOI with volume Vspect and activity Aspect separating the tumor activity from background was found. The activity in the tumor at the fourth time point can then be estimated by A4=Aspect-A0-Aspect/V0-VspectVspect-VCT, where the second term is the background correction, with the tumor volume VCT determined in the contrast enhanced CT. Spill in and out of activity from the tumor volume into the background was not considered.
(§5) Time activity curves (TAC) of the tumors were determined using the mean activity of 3 ml threshold VOIs, drawn in the 1, 4, 24 and 72 h p.i. images. A linear model yt=α+λe·t was fitted to the log-transformed data points to estimate the effective half-life Te=ln2/λe . The activity at the first acquisition is then given by A1=A4·e^λe·Δt where Δt is the time difference between the first and fourth acquisition. The total number of disintegrations can then be estimated by N=A1t1/2+∫t1e^-λet^′dt^′ where t1 is the time of the first acquisition.
(§6) The average energy deposition E per disintegration in soft tissue voxels of 3.9 mm^3 and 5.08^3 mm^3 with density ρ=1g/cm^3 was calculated with FLUKA, resulting in the mean tumor dose given by D=N·E/ρ·VCT .
(§7) In case the data was not suitable for single exponential fit, N was calculated numerically using trapezoidal integration until the fourth time point and after with analytical integration of the exponential decay using the half-live of Lutetium-177.
(§8) The energy distribution in ICRP soft tissue of a Lu-177 point source was calculated with the MC-Simulation toolkit FLUKA version 4.1.0.

In data set [3] the test system is medullary thyroid carcinoma tumors. Briefly: SPECT/CT based dosimetry of tumors. Conditions: for Mean tumor dose: SPECT/CT dosimetry. The method, then:
as §1, §2, §3, §4, §5, §6, §7, §8

For `CSCC[C@H](NC(=O)[C@H](Cc1c[nH]c2ccccc12)NC(=O)CNC(=O)[C@H](Cc1ccc(O)cc1)NC(=O)[C@H](C)NC(=O)[C@@H](CCC(=O)O)NC(=O)[C@@H](CCC(=O)O)NC(=O)[C@@H](CCC(=O)O)NC(=O)[C@@H](CCC(=O)O)NC(=O)[C@@H](CCC(=O)O)NC(=O)[C@@H](CCC(=O)O)NC(=O)CN1CCN(CC(=O)O)CCN(CC(=O)O)CCN(CC(=O)O)CC1)C(=O)N[C@@H](CC(=O)O)C(=O)N[C@@H](Cc1ccccc1)C(N)=O` [[^177Lu]Lu-PP-F11N, [^177Lu]Lu-DOTA-(DGlu)6-Ala-Tyr-Gly-Trp-Met-Asp-Phe-NH2, metal not drawn], in data set [1], the Serious adverse events entry is listed as “No serious adverse event”. In addition, the tissue to tissue ratio in data set [2] (tumor / bone marrow, 1.08 GBq, without Entresto premedication, patient 4, 2nd tumor, read-out: Tumor-to-bone marrow dose ratio) is 1.8; in data set [2] (tumor / bone marrow, with Entresto premedication, patient 4, 2nd tumor, read-out: Tumor-to-bone marrow dose ratio) it was 1.4; in data set [2] (tumor / kidney, 1.08 GBq, without Entresto premedication, patient 4, 2nd tumor, read-out: Tumor-to-kidney dose ratio) it was 1; in data set [2] (tumor / kidney, with Entresto premedication, patient 4, 2nd tumor, read-out: Tumor-to-kidney dose ratio), 0.6; in data set [2] (tumor / stomach, 1.08 GBq, without Entresto premedication, patient 4, 2nd tumor, read-out: Tumor-to-stomach dose ratio), 0.2; in data set [2] (tumor / stomach, with Entresto premedication, patient 4, 2nd tumor, read-out: Tumor-to-stomach dose ratio), 0.1. Moreover, the tissue to tissue ratio in data set [2] (tumor and bone marrow, 1.08 GBq, without Entresto premedication, patient 7, 2nd tumor, read-out: Tumor-to-bone marrow dose ratio) was 15.7; in data set [2] (tumor and bone marrow, with Entresto premedication, patient 7, 2nd tumor, read-out: Tumor-to-bone marrow dose ratio), 30.3; in data set [2] (tumor and kidney, 1.08 GBq, without Entresto premedication, median, read-out: Tumor-to-kidney dose ratio), 8.3; in data set [2] (tumor and kidney, with Entresto premedication, median, read-out: Tumor-to-kidney dose ratio), 7.8; in data set [2] (tumor and kidney, with Entresto premedication, patient 7, 2nd tumor, read-out: Tumor-to-kidney dose ratio) it was 11.2; in data set [2] (tumor and stomach, 1.08 GBq, without Entresto premedication, median, read-out: Tumor-to-stomach dose ratio), 1.5. For the same molecule, the tissue to tissue ratio in data set [2] (tumor and stomach, with Entresto premedication, median, read-out: Tumor-to-stomach dose ratio) was 1.1; in data set [2] (tumor and stomach, with Entresto premedication, patient 7, 2nd tumor, read-out: Tumor-to-stomach dose ratio), 1.3; in data set [3] (human, tumor and bone marrow, iv, total radioactivity, without Entresto premedication, median, read-out: Tumor-to-bone marrow dose ratio) it was 9.2. The Mean tumor dose in data set [3] (with Entresto premedication, median of n = 6 tumor lesions) is given as 0.74 Gy/GBq; in data set [3] (with Entresto premedication, patient 4, 2nd tumor), 0.07 Gy/GBq; in data set [3] (without Entresto premedication, median of n = 6 tumor lesions) it was 0.28 Gy/GBq; in data set [3] (without Entresto premedication, patient 4, 2nd tumor), 0.05 Gy/GBq.
